What was measured:
[1] = molecular target: Vn^80–396 (human); assay: BLI; Octet RED96; Vn 80–396 immobilised on AR2G sensors by amine coupling at pH 5; KatA as analyte, 1 in 3 dilution series (50–0.055 nM) in PBS, 0.05% Tween20; KD from steady state analysis
[2] = molecular target: catalase KatA of H. pylori CCUG18943, endogenous (Helicobacter pylori (endogenous in strain CCUG18943)) (UniProt P77872); assay: flow cytometry on cells; whole H. pylori (wt and ΔkatA) incubated with 3 μg human serum Vn per 10^6 cells, 1 h, 37 °C, PBS 1% BSA; sheep anti-human Vn Ab and FITC-conjugated anti-sheep pAb
[3] = molecular target: catalase KatA of H. pylori KR497, endogenous (Helicobacter pylori (endogenous in strain KR497)) (UniProt P77872); assay: as above
[4] = molecular target: catalase KatA of H. pylori KR697, endogenous (Helicobacter pylori (endogenous in strain KR697)) (UniProt P77872); assay: as above

Substance | Kd [1] | koff [1] | kon [1] | reduction of Vn binding to whole bacteria on deletion of katA [2] | reduction of Vn binding to whole bacteria on deletion of katA [3] | reduction of Vn binding to whole bacteria on deletion of katA [4]
full length recombinant KatA (from UniProt P77872 1-505) | 1 nM | 0.0003 s⁻¹ | 1e+06 M⁻¹ s⁻¹ | – | – | –
human serum vitronectin (Vn), activated, purified from serum (natural protein) | – | – | – | 21% | 50% | 50%

— PMC4834553
